Laboratory results from patent US11859229B2, “Polyvinyl alcohol-degrading enzyme and process for producing the same” (Hayashibara Co., Ltd., priority 2017, dated 2024).

Experiments:
Type in all cases: biochemical
[1] = Assay for PVA-oxidizing activity (hydrogen peroxide formation, titanium reagent, A410)
Procedure: As shown in the above (1), the PVA-degrading enzyme of the present invention has an PVA-oxidizing activity, i.e., an activity of catalyzing the reaction of oxidizing PVA as substrate and forming hydrogen peroxide. For example, the PVA-oxidizing activity can be measured by the following method.
To 0.5 mL of a substrate solution prepared by dissolving PVA (Reagent grade polyvinyl alcohol, polymerization degree: 2,000, Nacalai Tesque Inc., Kyoto, Japan) into 100 mM sodium phosphate buffer (pH 7.0) to give a concentration of 2% (w/v), 15 µL of 2% (w/v) of sodium azide solution was added, and then 0.5 mL of an enzyme solution is further added and reacted with shaking at 27° C. for 60 min. After the 60 min-reaction, the reaction was stopped by mixing 0.32 mL of the reaction mixture to 0.8 mL of a titanium reagent, and the yellow color, produced by reacting hydrogen peroxide formed by the enzyme reaction and the titanium reagent, was measured by measuring the absorbance at 410 nm (A410) as an index. Separately, the enzyme solution was added to the substrate solution, and the resulting mixture is immediately mixed with the titanium reagent. The resulting mixture was similarly measured its color and the value was used as the value at the reaction zero minutes. Then, the amount of the formed hydrogen peroxide is determined and the PVA-oxidizing activity is calculated based on the following formula. It is known that the absorbance at 410 nm (A410) increases by “1” when 3.65 […]mole/mL of hydrogen peroxide is formed. Therefore, in the following Formula 1, the coefficient of “3.65” has been multiplied. One unit of the PVA-oxidizing activity is defined as the amount of enzyme that forms 1 […]mole of hydrogen peroxide per min under the above conditions. Titanium reagent is prepared by diluting 5% titanium sulfate (IV) solution, commercialized by Nacalai Tesque Inc., Kyoto, Japan, 25-fold with 10% (w/w) sulfuric acid.

[2] = Detection of β-diketone hydrolyzing activity (acetone from 2,4-pentanedione by gas chromatography); parameters: key: Yes: Acetone, a product by the hydrolysis, was qualitatively detected; details: qualitative
Description: As shown in the above (2), the PVA-degrading enzyme of the present invention has an activity of hydrolyzing […]-diketone, i.e., […]-diketone-hydrolyzing activity. Enzymes having β-diketone-hydrolyzing activity can hydrolyze an oxidized PVA having a […]-diketone structure (i.e., oxidized PVA). Beta-diketone-hydrolyzing activity can be detected by examining the activity of hydrolyzing 2, 4-pentanedione which is a model compound of oxidized PVA having a […]-diketone structure. Acetone and acetic acid are formed when a PVA-degrading enzyme hydrolyzes 2,4-pentanedione. Therefore, for example, […]-diketone-hydrolyzing activity can be detected by the following method using 2,4-pentanedione as a substrate.
2,4-Pentanedione (Reagent grade, commercialized by Wako Pure Chemical Industries Co., Ltd., Osaka, Japan) was added to 50 mM sodium phosphate buffer (pH 7.0) to give a concentration of 0.2% (w/v) to make into a substrate solution. To 1 mL of the substrate solution, 0.2 mL of enzyme solution and 0.8 mL of 50 mM sodium phosphate buffer (pH 7.0) were added and then the mixture was shaken at 27° C. for 3 hours for the reaction. After the reaction, 2 mL of the reaction mixture was withdrawn and put in a glass vial, and then the vial was sealed and heated at 95° C. for 40 min. […]

[3] = PVA-degrading (viscosity-reducing) activity; details: at each purification step
Procedure: While, activity as a PVA-degrading enzyme can be measured, for example, by measuring the viscosity reduction of a PVA solution, caused by the degradation of PVA, as an index using the following method.
To 0.5 mL of a substrate solution prepared by dissolving PVA (Reagent grade polyvinyl alcohol, polymerization degree: 2,000, Nacalai Tesque Inc., Kyoto, Japan) into 100 mM sodium phosphate buffer (pH 7.0) to give a concentration of 2% (w/v), 15 µL of 2% (w/v) of sodium azide solution was added, and then 0.5 mL of an enzyme solution is further added and reacted with shaking at 27° C. for 60 min. After the reaction, 0.6 mL of the reaction mixture was withdrawn and its viscosity was measured using a Cone plate-type viscometer (“DV-II+Pro”, Brookfield Co., Ltd.) at 30° C. Separately, the enzyme solution was added to the substrate solution and the viscosity was measured immediately, and the viscosity was used as that at zero-min reaction. The PVA-degrading activity was calculated based on the following formula. One unit of the PVA-degrading activity was defined as the amount of enzyme that causes a 10%-reduction of relative viscosity per min under the above conditions. […]

[4] = Optimum temperature and optimum pH of PVA-oxidizing activity
Procedure: To 0.5 mL of a substrate solution prepared by dissolving PVA (Reagent grade polyvinyl alcohol, polymerization degree: 2,000, Nacalai Tesque Inc., Kyoto, Japan) into 100 mM sodium phosphate buffer (pH 7.0) to give a concentration of 2% (w/v), 15 µL of 2% (w/v) of sodium azide solution was added, and then 0.5 mL of an enzyme solution is further added and reacted with shaking at 27° C. for 60 min. After the 60 min-reaction, the reaction was stopped by mixing 0.32 mL of the reaction mixture to 0.8 mL of a titanium reagent, and the yellow color, produced by reacting hydrogen peroxide formed by the enzyme reaction and the titanium reagent, was measured by measuring the absorbance at 410 nm (A410) as an index. Separately, the enzyme solution was added to the substrate solution, and the resulting mixture is immediately mixed with the titanium reagent. The resulting mixture was similarly measured its color and the value was used as the value at the reaction zero minutes. Then, the amount of the formed hydrogen peroxide is determined and the PVA-oxidizing activity is calculated based on the following formula. It is known that the absorbance at 410 nm (A410) increases by “1” when 3.65 […]mole/mL of hydrogen peroxide is formed. Therefore, in the following Formula 1, the coefficient of “3.65” has been multiplied. […]

[5] = Thermal stability and pH stability (residual PVA-oxidizing activity)
Procedure: To 0.5 mL of a substrate solution prepared by dissolving PVA (Reagent grade polyvinyl alcohol, polymerization degree: 2,000, Nacalai Tesque Inc., Kyoto, Japan) into 100 mM sodium phosphate buffer (pH 7.0) to give a concentration of 2% (w/v), 15 µL of 2% (w/v) of sodium azide solution was added, and then 0.5 mL of an enzyme solution is further added and reacted with shaking at 27° C. for 60 min. After the 60 min-reaction, the reaction was stopped by mixing 0.32 mL of the reaction mixture to 0.8 mL of a titanium reagent, and the yellow color, produced by reacting hydrogen peroxide formed by the enzyme reaction and the titanium reagent, was measured by measuring the absorbance at 410 nm (A410) as an index. Separately, the enzyme solution was added to the substrate solution, and the resulting mixture is immediately mixed with the titanium reagent. The resulting mixture was similarly measured its color and the value was used as the value at the reaction zero minutes. Then, the amount of the formed hydrogen peroxide is determined and the PVA-oxidizing activity is calculated based on the following formula. It is known that the absorbance at 410 nm (A410) increases by “1” when 3.65 […]mole/mL of hydrogen peroxide is formed. […]
In the two purified preparations of the PVA-degrading enzyme, PVA-A was used for investigating thermal stability and pH stability using PVA-oxidizing activity as an index according to the assay method. Thermal stability was determined by the steps of incubating the enzyme solution (in 10 mM phosphate buffer, pH 7.0) at various temperature for 60 min, cooling in water, and then measuring the residual enzyme activity. pH Stability was determined by the steps of incubating the enzyme solution in 100 mM buffer with different pH at 4° C. for 24 hours, adjusting pH to 7.0, and then measuring the residual enzyme activity. […] In FIG. 6, symbols, “●”, “▪”, “▴” and “♦”, mean values measured by using acetate buffer, phosphate buffer, glycine-NaOH buffer, and potassium chloride-NaOH buffer, respectively, for pH control.

B1: PVA-B: purified PVA-degrading hybrid enzyme from Pseudomonas sp. VT1B strain, amino acid sequence of SEQ ID NO: 3 (protein, listed as Pseudomonas sp.)
chain: AENWPMFGKNYENSRATADTQLSTSNISSLNVVRRTADGGITGTPTVVDGVAYYSDFSGYVKAVRVNDGAVLWRVRPQTTMLSPSPFVTDDTVYVAGNNSYVYALNRLDGAVRWTTQIETSPNSRISSSPIVVDNILMIGTGSYQVFIPATPMFRGRVVFLNATTGAILPYSTNMCPEGLCGGGISVWSTAAVDVSTRTGYIGTGQAYRDPAGPYSDSLVAFDIDTGAIRWSQQFLANDVYQLGGVLRYDYDVGAAPNLFVADERRMVGVGGKDGTYRAFDRDTGAPIWTTPVGRGSPIGGVMQSTAYGDGRIYVTSNTSTIGGGRNDPVPATAEALALDAATGTPVWIRQLDAGGFGGVAYANGLMYASVWDGRMRVFNAANGNIVKEVQVSPSRGVYVAAPTDGFPNGSAGGPIVYGNRVLMGYGWTWVLNISGGLATMELVSGGGETQTVTLASNQDTYVQSGTPTTSYNANEFLLARLADAEGLTRASFLQFPLTAIPAGTITSARLRLYGRHDAPTGTGQPVSVWPGTFTTPWNGADVIYNNSDLVTGVNFYLTSPIANALIGITPQYYEWDVTGYVDSRRALGHATFGVAVDYGHLYRVTFNSADNAANRPELVVAVSTGGTSEPDPELPPGSMEGSCPAGFTPRAGVNQGFIHNGVARGFVLNVPANVSTPRPMFVSLTGSVESTNENLGPRGGAGALTNDGFLVIGPVRRCAGQDPNGSGTSVGGGTCNQPGTGGWNWNPWNEGRAFGAAGDQWKTAEGPDSEFLESVARCVAKRFPVDSKRMYLGGISSGGTLTNRALLFNSDFWAGGLPISGEWYVTRDDGTAYPGPDEFAARRQAVIDDPTKIFQGRVGPLPLRSTLDPMIVITVWGGTNDVWSCDGVTLCADYRPSTQVASNYFSAQPNVVHVACSSSHGHQWPTINRAAFNTWAATTLASHPKGTPASAFVLPPPPAGYTCRIGPYIDHYERACSVDGDGDIDRNDIAVITAARNQPASGPTDLRDVDRSGVIDVNDARACTLRCDRPNCAVQ
- Specific activity ([1]; PVA-oxidizing activity per mg protein at each purification step): 1.9 U/mg
- Total Activity (PVA-oxidizing activity) ([1]; at each purification step, from 4 L culture supernatant): 3.3 U
- 2,4-Pentanedione-Degrading Activity [2]: Yes*
- Total PVA-Degrading Activity (Viscosity-reducing Activity) [3]: 8.4 U
- Optimum pH of PVA-oxidizing activity ([4]; 60 min-reaction at 27° C.): almost the same
- Optimum temperature of PVA-oxidizing activity ([4]; 60 min-reaction at pH 7.0): almost the same
- Thermal stability of PVA-oxidizing activity ([5]; 10 mM phosphate buffer, pH 7.0, 60 min): almost the same
- pH stability of PVA-oxidizing activity ([5]; 100 mM buffer, 4° C. for 24 hours): almost the same
